Results on two molecules are retold here after publication PMC7494997 (Scientific Reports, 2020).

Experiment [1] addresses T1, yeast-displayed hVISTA (human).
T1 construct: also called wild-type hVISTA; WT VISTA
Put plainly: flow cytometry on cells; hVISTA (Phe33-Ala194) displayed on yeast, titrations of soluble antibody in PBS/BSA pH 6.0, 4 °C, 12 h. Particulars: one partner purified.

Experiment [2] has as its target T1, yeast-displayed hVISTA. Put plainly: flow cytometry on cells; hVISTA (Phe33-Ala194) displayed on yeast, titrations of soluble antibody in PBS/BSA pH 7.4, 4 °C, 12 h. Particulars: one partner purified.

T1 sequence (chain, as listed by the source): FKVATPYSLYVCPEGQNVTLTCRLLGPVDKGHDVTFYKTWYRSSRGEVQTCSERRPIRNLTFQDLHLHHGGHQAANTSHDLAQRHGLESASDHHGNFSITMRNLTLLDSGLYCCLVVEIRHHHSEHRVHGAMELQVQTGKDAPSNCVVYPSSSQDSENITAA

B1: BMS767 (antibody, V domains shown)
VH: EVQLVESGGGLVQPGKSLRLSCAASGFTLEDYAMHWVRQAPGKGLEWVSGIDWNSENIGYADSVKGRFTISRDNAKNSLYLQMNSLRTEDTALYYCAKVPGYSGGWIDAEDDWGQGTMVTVSS
VL: not shown
notes: human IgG1 heavy chain; human kappa light chain; full human IgG1; also called BMS (Bristol Myers Squibb); source: Expi293 cells, purified (protein A)
Broadly, the Kd is the equilibrium constant for the complex coming apart. Low values mean higher affinity, high ones lower affinity. Turning to B1, in the experiment with yeast-displayed hVISTA [1], the Kd is approximately 3 nM.

B2: VSTB112 (antibody, V domains shown)
VH: QVQLVQSGAEVKKPGSSVKVSCKASGGTFSSYAISWVRQAPGQGLEWMGGIIPIFGTANYAQKFQGRVTITADESTSTAYMELSSLRSEDTAVYYCARSSYGWSYEFDYWGQGTLVTVSS
VL: DIQMTQSPSSLSASVGDRVTITCRASQSIDTRLNWYQQKPGKAPKLLIYSASSLQSGVPSRFSGSGSGTDFTLTISSLQPEDFATYYCQQSAYNPITFGQGTKVEIK
notes: human IgG1 heavy chain; human kappa light chain; full human IgG1; also called CI-8993 (Janssen/ImmuNext, Curis); source: Expi293 cells, purified (protein A)
On to B2, for which, in the experiment with yeast-displayed hVISTA [2], the Kd was approximately 3 nM.
